{"source": "patent US20030148417", "proteins": {"B1": {"name": "recombinant TcAP2 protein (aspartic endoproteinase from Theobroma cacao, secreted by Yarrowia lipolytica clone pCY330-33) (protein)", "chain": "VSNDGLVRIGLKKMKLDPNNRLAARLDSKDGEALRAFIKKYRFRNNLGDSEETDIVALKNYMDAQYYGEIGIGTPTQKFTVIFDTGSSNLWVSSTKCYFSVACYFHEKYKASDSSTYKKDGKPASIQYGTGAISGFFSYDHVQVGDLVVKDQEFIEATKEPGLTFMVAKFDGILGLGFKEISVGDAVPVWYNMIKQGLIKEPVFSFWLNRNVDEEAGGEIVFGGVDPNHYKGKHTYVPVTQKGYWQFDMGDVLIADKPTGYCAGSCAAIADSGTSLLAGPSTVITMINHAIGATGVVSQECKAVVQQYGRTIIDLLIAEAQPQKICSQIGLCTFNGAHGVSTGIESVVDESNGKSSGVLRDAMCPACEMAVVWMQNQVRQNQTQDRILSYVNELCDRVPNPMGESAVDCGSLSSMPTISFTIGGKVFDLTPEEYILKVGEGSEAQCISGFTALDIPPPRGPLWILGDIFMGRYHTVFDFGKLRVGFAEAAHHH"}}, "key": {"[1]": {"target": "bovine haemoglobin, P01966", "sequence (P01966 2-142, chain 1 of 2)": "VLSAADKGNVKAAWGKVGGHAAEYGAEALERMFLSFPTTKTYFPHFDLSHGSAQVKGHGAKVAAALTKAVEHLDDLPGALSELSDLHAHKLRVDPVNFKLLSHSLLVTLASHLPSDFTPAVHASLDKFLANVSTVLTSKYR", "sequence (chain, as listed by the source, chain 2 of 2)": "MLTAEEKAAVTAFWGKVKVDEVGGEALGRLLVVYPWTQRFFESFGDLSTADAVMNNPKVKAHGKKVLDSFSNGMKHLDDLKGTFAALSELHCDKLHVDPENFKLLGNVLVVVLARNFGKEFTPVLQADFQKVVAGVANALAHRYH"}}, "data": [{"protein": "B1", "values": [{"measurement": "endoprotease activity (hydrolysis of bovine haemoglobin)", "setting": "Pepstatin A", "result": "completely inhibited by 2 µM pepstatin"}, {"measurement": "pepstatin insensitive activity (hydrolysis of bovine haemoglobin, 2 µM pepstatin)", "setting": "Pepstatin A", "result": "1.91±1.26 pmoles L-leucine/min/mg protein, 6.65%"}, {"measurement": "hydrolysis of bovine haemoglobin (OPA assay, pH 3, 42 C)", "setting": "[1]", "result": "25.8±1.45 pmoles L-leucine/min/mg protein"}]}]}
